One molecule from PMC2148129 can be followed below.

Where two headings read alike, the source gives them in different places.

Test [1] concerns the target peripheral node addressin. Put plainly: parallel plate laminar flow chamber, duration of transient cell tethers.
Test [2] concerns the target peripheral node addressin. Described as above. The source holds these as a separate data set.

B1: L-selectin (receptor)
chain: WTYHYSEKPMNWQRARRFCRDNYTDLVAIQNKAEIEYLEKTLPFSRSYYWIGIRKIGGIWTWVGTNKSLTEEAENWGDGEPNNKKNKEDCVEIYIKRNKDAGKWNDDACHKLKAALCYTASCQPWSCSGHGECVEIINNYTCNCDVGYYGPQCQFVIQCEPLEAPELGTMDCTHPLGNFSFSSQCAFSCSEGTNLTGIEETTCGPFGNWSSPEPTCQVIQCEPLSAPDLGIMNCSHPLASFSFTSACTFICSEGTELIGKKKTICESSGIWSNPSPICQKLDKSFSMIKEGDYNPLFIPVAVMVTAFSGLAFIIWLARRLKKGKKSKRSMNDPY
As for B1, the transient tether lifetime came to 0.087 s in test [1] and 0.057 s in test [2].
